Columns and labels:
[1] = target: T1, Fluorescence-labeled synthetic peptide AG FAGP (not fully specified)
T1 chain: AGFAGP

[2] = target: T2, Fluorescence-labeled synthetic peptide G FAGP (not fully specified)
T2 chain: GFAGP

[3] = target: T3, Fluorescence-labeled synthetic peptide GPAG FAG (not fully specified)
T3 chain: GPAGFAG

[4] = target: T4, Fluorescence-labeled synthetic peptide GPAG FA (not fully specified)
T4 chain: GPAGFA

[5] = target: T5, Fluorescence-labeled synthetic peptide GPAG F (not fully specified)
T5 chain: GPAGF

[6] = target: T6, Fluorescence-labeled synthetic peptide PAG FAGP (not fully specified)
T6 chain: PAGFAGP

[7] = target: T7, Fluorescence-labeled synthetic peptide of Pro-Gln-Gly-Ile-Ala-Gly-Gln (not fully specified)
T7 chain: PQGIAGQ

[8] = target: T8, Nma-Gly-Pro-Ala-Gly-Phe-Ala-Gly-Pro-Lys-(DNP)r-NH2 (not fully specified)
T8 chain: GPAGFAGPK

[9] = target: T9, Nma-Gly-Pro-Gln-Gly-Phe-Gln-Gly-Pro-Lys-(DNP)r-NH2 (not fully specified)
T9 chain: GPQGFQGPK

[10] = target: T10, Nma-Thr-Gln-Ser-Leu-Val-Thr-Pro-Lys-(DNP)r-NH2 (not fully specified)
T10 chain: TQSLVTPK

B1: Protease of the present invention, purified from the culture of Aureobacterium sp. MIM-CG-9535-I (FERM P-15326) (protein)
chain: LIVNTVNSIDDKWSDAQASALTYCVSTAFGARHADVVSAMESGAALWEAASSKIDFIYDSSADANCTTRNNAVLFSVEPVQTTQYIARAFFPSTAPRLQNVLIDDSIWTPGSSWTPTNVLGHELGHVLGFRHEHTRPEAGTCFEDDNWRPLTPYDSSSIMHYPQCNGSSADLSMTSVDTDGVVALYGN
- Present or Absent of Specific degradation activity [1]: Absent
- Present or Absent of Specific degradation activity [2]: Absent
- Present or Absent of Specific degradation activity [3]: Absent
- Present or Absent of Specific degradation activity [4]: Absent
- Present or Absent of Specific degradation activity [5]: Absent
- Present or Absent of Specific degradation activity [6]: Present
- Protease cutting activity (degradation of synthetic substrate) [7]: (X) Does not degrade
- Present or Absent of Specific degradation activity [8]: Present
- Protease cutting activity (degradation of synthetic substrate) [8]: (◯) Degrades
- Protease cutting activity (degradation of synthetic substrate) [9]: (◯) Degrades
- Protease cutting activity (degradation of synthetic substrate) [10]: (◯) Degrades

From US20100015664A1
